Results reported in patent publication US20200231673A1 (Hoffmann-La Roche, published 2020).

B1: Her2 TCB: anti-Her2/anti-CD3 '2+1 IgG CrossFab, inverted' molecule with charge modifications (bispecific antibody)
light: EVQLLESGGGLVQPGGSLRLSCAASGFTFSTYAMNWVRQAPGKGLEWVSRIRSKYNNYATYYADSVKGRFTISRDDSKNTLYLQMNSLRAEDTAVYYCVRHGNFGNSYVSWFAYWGQGTLVTVSSASVAAPSVFIFPPSDEQLKSGTASVVCLLNNFYPREAKVQWKVDNALQSGNSQESVTEQDSKDSTYSLSSTLTLSKADYEKHKVYACEVTHQGLSSPVTKSFNRGEC
chain 1: not shown
chain 2: not shown
chain 3: not shown
B2: Her3 TCB: anti-Her3/anti-CD3 '2+1 IgG CrossFab' molecule with charge modifications (bispecific antibody)
light: B1 light
chain 1: not shown
chain 2: QVQLVQSGAEVKKPGASVKVSCKASGYTFRSSYISWVRQAPGQGLEWMGWIYAGTGSPSYNQKLQGRVTMTTDTSTSTAYMELRSLRSDDTAVYYCARHRDYYSNSLTYWGQGTLVTVSSASTKGPSVFPLAPSSKSTSGGTAALGCLVEDYFPEPVTVSWNSGALTSGVHTFPAVLQSSGLYSLSSVVTVPSSSLGTQTYICNVNHKPSNTKVDEKVEPKSCDKTHTCPPCPAPEAAGGPSVFLFPPKPKDTLMISRTPEVTCVVVDVSHEDPEVKFNWYVDGVEVHNAKTKPREEQYNSTYRVVSVLTVLHQDWLNGKEYKCKVSNKALGAPIEKTISKAKGQPREPQVCTLPPSRDELTKNQVSLSCAVKGFYPSDIAVEWESNGQPENNYKTTPPVLDSDGSFFLVSKLTVDKSRWQQGNVFSCSVMHEALHNHYTQKSLSLSP
chain 3: not shown

Legend:
[1] = target: human CD3 (particularly the epsilon subunit of CD3) (human, UniProt P07766 23-207); test: cell-based or functional assay
human Her3 = human Her3 (human, UniProt P21860 20-1342); test: cell-based or functional assay

| EC50 of activation of Jurkat-NFAT reporter cells via CD3 after 5 h (luminescence, KPL4 tumor cells) [1] [pM] | EC50 of tumor cell lysis (LDH release), KPL4 cells, 24 h (human Her3) [pM] | EC50 of tumor cell lysis (LDH release), KPL4 cells, 48 h (human Her3) [pM] | EC50 of tumor cell lysis determined by Caspase 3/7 activity (luminescence), KPL-4-Caspase-3/7 GloSensor cells, 6.5 h (human Her3) [pM] | Binder |
| --- | --- | --- | --- | --- |
| 34.4 |  |  |  | B1 |
| 22 | 2.54 | 0.53 | 0.7 | B2 |
